This is an account of results in patent US20050287542A1.

A value given as a limit tells only on which side of the number the result lay.

In assay [1] the target is endogenous CBP/p300 in HEK293 cells. Description: cell-based or functional assay.
Assay [2] deals with full-length p300 (exogenous, CMV expression vector). Description: cell-based or functional assay.
The target in assay [3] is CBP KIX variant I657A (UniProt P45481). Kind of assay: fluorescence polarization. On the technique in general: In fluorescence polarisation assays a small probe gives low polarisation when free and higher when bound to something large.
The target in assay [4] is CBP KIX variant I660A (UniProt P45481). Description: fluorescence polarization.
Assay [5] deals with GST-KIXY650A (Y650A variant of CBP KIX) (UniProt P45481). Kind of assay: fluorescence polarization.
Assay [6] concerns the target CBP KIX variant LL652-3AA (UniProt P45481). Description: fluorescence polarization.
Assay [7] concerns the target CBP KIX variant L603A (UniProt P45481). Description: fluorescence polarization.
Assay [8] has as its target CBP KIX variant K662A (UniProt P45481). Description: fluorescence polarization.
Assay [9] addresses CBP KIX variant Y658F (UniProt P45481). Kind of assay: fluorescence polarization.
Assay [10] concerns the target CBP KIX variant K606A (UniProt P45481). Kind of assay: fluorescence polarization.
Assay [11] addresses CBP KIX variant Q661A (UniProt P45481). Kind of assay: fluorescence polarization.
For assay [12], the target named is CBP KIX variant Y658A (UniProt P45481). Kind of assay: fluorescence polarization.
Assay [13] has as its target CBP KIX variant Y650A (Example 20) (UniProt P45481). Kind of assay: fluorescence polarization.
The target of assay [14] is CBP KIX variant E655A (UniProt P45481). Kind of assay: fluorescence polarization.
The target of assay [15] is CBP KIX variant L599A (UniProt P45481). Kind of assay: fluorescence polarization.
The target of assay [16] is HisKIX (His-tagged CBP KIX domain) (UniProt P45481). Description: fluorescence polarization at 150 µM HisKIX.
For assay [17] the target is unchanged. Kind of assay: fluorescence polarization at 325 µM HisKIX.
Assay [18] deals with catalytic subunit of cAMP-dependent protein kinase (PKA). Description: cell-based or functional assay.

Chain of CBP KIX variant LL652-3AA (P45481 other isoform, or with tags, fused parts or gaps mutant limits assumed): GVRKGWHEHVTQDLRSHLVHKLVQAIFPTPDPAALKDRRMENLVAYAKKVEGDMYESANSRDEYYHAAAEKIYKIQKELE
Chain of CBP KIX variant L603A (P45481 586-665 L603A limits assumed): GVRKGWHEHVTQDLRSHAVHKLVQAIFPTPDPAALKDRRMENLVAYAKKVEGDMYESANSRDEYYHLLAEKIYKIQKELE
Chain of CBP KIX variant K606A (P45481 586-665 K606A limits assumed): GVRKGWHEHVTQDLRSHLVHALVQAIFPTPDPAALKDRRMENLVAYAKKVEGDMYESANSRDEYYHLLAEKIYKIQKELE
Chain of CBP KIX variant Y658A (P45481 586-665 Y658A limits assumed): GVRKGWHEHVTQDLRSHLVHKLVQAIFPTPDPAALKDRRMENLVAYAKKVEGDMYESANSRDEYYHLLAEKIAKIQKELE
Chain of CBP KIX variant Y650A (Example 20) (P45481 586-665 Y650A limits assumed): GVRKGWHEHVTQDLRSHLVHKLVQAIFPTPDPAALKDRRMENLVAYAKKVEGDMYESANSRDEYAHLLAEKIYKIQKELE
Chain of CBP KIX variant Q661A (P45481 586-665 Q661A limits assumed): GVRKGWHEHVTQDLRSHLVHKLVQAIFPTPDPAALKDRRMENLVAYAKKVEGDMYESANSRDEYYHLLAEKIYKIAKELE
Chain of CBP KIX variant E655A (P45481 586-665 E655A limits assumed): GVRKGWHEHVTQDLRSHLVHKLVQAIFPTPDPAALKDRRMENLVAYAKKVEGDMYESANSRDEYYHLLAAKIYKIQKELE
Chain of CBP KIX variant K662A (P45481 586-665 K662A limits assumed): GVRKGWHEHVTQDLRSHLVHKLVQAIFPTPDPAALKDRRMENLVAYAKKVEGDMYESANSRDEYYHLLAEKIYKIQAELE
Chain of HisKIX (His-tagged CBP KIX domain) (P45481 586-672): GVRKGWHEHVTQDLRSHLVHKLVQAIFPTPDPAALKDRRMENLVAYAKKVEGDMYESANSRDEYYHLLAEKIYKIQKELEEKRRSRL
Chain of CBP KIX variant L599A (P45481 586-665 L599A limits assumed): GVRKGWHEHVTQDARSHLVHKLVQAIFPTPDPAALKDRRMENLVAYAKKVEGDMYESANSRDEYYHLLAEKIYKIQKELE
Chain of CBP KIX variant Y658F (P45481 586-665 Y658F limits assumed): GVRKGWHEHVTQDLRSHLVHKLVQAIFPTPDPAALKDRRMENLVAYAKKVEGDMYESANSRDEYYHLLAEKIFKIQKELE
Chain of CBP KIX variant I657A (P45481 586-665 I657A limits assumed): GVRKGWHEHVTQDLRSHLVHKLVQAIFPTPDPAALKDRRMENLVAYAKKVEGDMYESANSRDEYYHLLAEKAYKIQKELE
Chain of CBP KIX variant I660A (P45481 586-665 I660A limits assumed): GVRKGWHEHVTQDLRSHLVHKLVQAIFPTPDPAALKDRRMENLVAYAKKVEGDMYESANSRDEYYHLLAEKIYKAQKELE
Chain of GST-KIXY650A (Y650A variant of CBP KIX) (P45481 586-665 Y650A limits assumed): as the sequence (P45481 586-665 Y650A limits assumed) above

Take “Gal4 DBD (residues 1-147) fusion of KID-AB (from UniProt P04386 1-147)”: the fold activation of Gal4 luciferase reporter in HEK293 cells, with forskolin in [1] was determined as 7.5 fold. The substance also came in with a fold activation of Gal4 luciferase reporter, with forskolin and exogenous p300 in [2] of 20 fold.

As usually defined, the Kd is the concentration at which binding is half-saturated. A low value points to a tighter complex. For the substance “KID-AB^P (full-length CREB KID domain, residues 119-148, phosphorylated), fluorescein-labelled (peptide)”, the Kd worked out at 1900 nM in [3]; 270 nM in assay [4]; 2900 nM in assay [6]; 3400 nM in assay [7]; 4800 nM in assay [8]; 26000 nM in assay [9]. The equilibrium dissociation constant (Kd) in [10] amounted to 2300 nM; in [11] it was 930 nM; in [12], 142000 nM; in assay [13] it was 9400 nM; in assay [14], 710 nM; in assay [15], 1100 nM. Moreover, the ΔΔG against wild type CBP KIX in assay [3] was 0.9 kcal/mol; in assay [4], -0.26 kcal/mol; in [6] it was 1.2 kcal/mol; in assay [7], 1.2 kcal/mol; in [8], 1.5 kcal/mol; in assay [9] it was 2.5 kcal/mol. The ΔΔG against wild type CBP KIX in assay [10] was found to be 1 kcal/mol; in assay [11], 0.48 kcal/mol; in assay [12], 3.5 kcal/mol; in [13] it was 1.8 kcal/mol; in assay [14], 0.32 kcal/mol; in [15] it was 0.58 kcal/mol. Further, in assay [5], the fold less stable than the wild type GST-KIX complex was 15 fold.

For “KID-AB^U, fluorescein-labelled (peptide)”, the change in polarization in assay [16] is 61 mP.

With KID-B^U, fluorescein-labelled (peptide), the change in polarization in assay [17] came to 76 mP.

Substance “PKI^A21C alkylated with bromoacetamide (peptide)” gave an IC50, inhibition of PKA phosphotransferase activity in assay [18] of more than 1000 nM.
